Test results reported in PMC12355267, “Human Helicase DDX5 is Hijacked by SARS-CoV‑2 Nsp13 Helicase to Enhance RNA Unwinding” (ACS Omega, 2025).

Molecular target: T1, SARS-CoV-2 Nsp13 helicase (SARS-CoV-2, UniProt P0DTD1 5325-5925)
T1 construct: also called Nsp13 helicase of SARS-CoV-2
Assay: BLI
Conditions: both partners purified

B1: DDX5ΔC (1–484) (domain or fragment, human, UniProt P17844 1-484, looked up)
chain: MSGYSSDRDRGRDRGFGAPRFGGSRAGPLSGKKFGNPGEKLVKKKWNLDELPKFEKNFYQEHPDLARRTAQEVETYRRSKEITVRGHNCPKPVLNFYEANFPANVMDVIARQNFTEPTAIQAQGWPVALSGLDMVGVAQTGSGKTLSYLLPAIVHINHQPFLERGDGPICLVLAPTRELAQQVQQVAAEYCRACRLKSTCIYGGAPKGPQIRDLERGVEICIATPGRLIDFLECGKTNLRRTTYLVLDEADRMLDMGFEPQIRKIVDQIRPDRQTLMWSATWPKEVRQLAEDFLKDYIHINIGALELSANHNILQIVDVCHDVEKDEKLIRLMEEIMSEKENKTIVFVETKRRCDELTRKMRRDGWPAMGIHGDKSQQERDWVLNEFKHGKAPILIATDVASRGLDVEDVKFVINYDYPNSSEDYIHRIGRTARSTKTGTAYTFFTPNNIKQVSDLISVLREANQAINPKLLQLVEDRGSGRSR
notes: human DDX5 without the flexible C-terminal end, residues 1-484; also called C-terminal truncated form of DDX5; source: E. coli (gene optimized for E. coli expression, pETM-13), purified
binding result: binds
